For the assay, the target named is integrin α3β1 on gastric cancer cells (MKN45, MKN45/CTGF, AGS) (human) (UniProt P26006). Nature of the assay: cell-based or functional assay.
UniProt P26006, sequence (P26006 33-1051, chain 1 of 2): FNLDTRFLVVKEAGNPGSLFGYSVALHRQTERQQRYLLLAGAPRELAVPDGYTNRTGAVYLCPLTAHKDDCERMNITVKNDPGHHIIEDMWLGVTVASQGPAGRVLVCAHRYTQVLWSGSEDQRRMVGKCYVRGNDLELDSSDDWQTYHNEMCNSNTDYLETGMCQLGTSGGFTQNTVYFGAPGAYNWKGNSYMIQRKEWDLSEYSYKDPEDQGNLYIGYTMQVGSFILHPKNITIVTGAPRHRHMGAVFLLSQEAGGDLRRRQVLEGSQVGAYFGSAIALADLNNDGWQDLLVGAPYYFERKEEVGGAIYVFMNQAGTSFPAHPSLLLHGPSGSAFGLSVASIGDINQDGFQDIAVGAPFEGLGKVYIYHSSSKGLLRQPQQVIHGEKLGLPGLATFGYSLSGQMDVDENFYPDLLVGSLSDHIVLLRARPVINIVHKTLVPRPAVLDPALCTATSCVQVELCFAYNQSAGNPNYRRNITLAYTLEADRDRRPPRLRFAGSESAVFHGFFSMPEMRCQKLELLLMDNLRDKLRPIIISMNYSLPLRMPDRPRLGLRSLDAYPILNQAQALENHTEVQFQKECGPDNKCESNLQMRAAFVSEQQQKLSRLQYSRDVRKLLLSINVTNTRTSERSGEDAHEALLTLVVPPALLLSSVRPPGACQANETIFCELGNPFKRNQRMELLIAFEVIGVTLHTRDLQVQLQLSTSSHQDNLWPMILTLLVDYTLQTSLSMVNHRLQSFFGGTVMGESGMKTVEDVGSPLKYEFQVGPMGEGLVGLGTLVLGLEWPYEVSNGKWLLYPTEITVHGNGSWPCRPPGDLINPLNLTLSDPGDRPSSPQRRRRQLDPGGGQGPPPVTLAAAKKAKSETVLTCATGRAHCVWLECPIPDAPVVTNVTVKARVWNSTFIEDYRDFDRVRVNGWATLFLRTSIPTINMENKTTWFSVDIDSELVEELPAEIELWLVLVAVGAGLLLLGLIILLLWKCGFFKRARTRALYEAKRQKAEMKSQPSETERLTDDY
UniProt P26006, sequence (P05556 21-798, chain 2 of 2, further chain): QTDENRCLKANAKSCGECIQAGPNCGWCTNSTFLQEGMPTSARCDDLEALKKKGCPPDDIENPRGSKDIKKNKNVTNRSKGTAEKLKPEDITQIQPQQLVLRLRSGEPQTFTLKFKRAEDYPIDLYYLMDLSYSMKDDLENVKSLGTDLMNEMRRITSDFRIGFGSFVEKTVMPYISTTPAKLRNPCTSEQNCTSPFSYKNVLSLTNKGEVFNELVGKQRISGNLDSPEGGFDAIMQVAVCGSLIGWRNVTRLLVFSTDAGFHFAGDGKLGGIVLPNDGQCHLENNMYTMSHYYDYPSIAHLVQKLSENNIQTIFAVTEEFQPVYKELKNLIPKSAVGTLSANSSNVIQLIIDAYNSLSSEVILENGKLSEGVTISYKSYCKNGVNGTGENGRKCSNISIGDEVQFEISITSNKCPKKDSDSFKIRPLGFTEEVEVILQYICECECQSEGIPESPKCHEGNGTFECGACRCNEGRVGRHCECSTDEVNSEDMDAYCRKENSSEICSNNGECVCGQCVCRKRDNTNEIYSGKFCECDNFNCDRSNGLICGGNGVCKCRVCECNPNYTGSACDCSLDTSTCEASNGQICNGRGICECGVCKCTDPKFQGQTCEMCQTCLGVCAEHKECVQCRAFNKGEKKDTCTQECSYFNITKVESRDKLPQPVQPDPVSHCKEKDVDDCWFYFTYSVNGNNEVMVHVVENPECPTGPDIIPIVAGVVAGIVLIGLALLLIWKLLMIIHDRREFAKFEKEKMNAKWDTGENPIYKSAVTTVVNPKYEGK

In the case of “recombinant CTGF C terminal (CT) domain (from UniProt P29279 253-349) (ligand)”, the adhesion inhibition (MKN45 cells, matrigel adhesion assay, 6 hours post treatment, 50 ng rCTGF) was 50%; the adhesion inhibition (MKN45 cells, matrigel adhesion assay, 6 hours post treatment, 100 ng rCTGF) is 70%; the adhesion inhibition (MKN45 cells, matrigel adhesion assay, 6 hours post treatment, 200 ng rCTGF) stood at 75%.
